Measured values taken from US20240132578A1.

Key:
Assay in all cases: cell-based or functional assay
[1] = target: HIV-1 JR-CSF Env I423A (I4234 in the source) (HIV-1 (isolate JR-CSF)) (UniProt P20871)
[2] = target: HIV-1 envelope glycoprotein (Env) of isolate VLGCA1, subtype A (HIV-1)
[3] = target: HIV-1 envelope glycoprotein (Env) of isolate MGRM-Chronic-B-017, on pseudovirus (HIV-1)
[4] = target: HIV-1 JR-CSF Env I307A (HIV-1 (isolate JR-CSF, clade B)) (UniProt P20871)
[5] = target: HIV-1 Env of isolate MGRM-F1-015 (pseudovirus) (HIV-1)
[6] = target: HIV-1 envelope glycoprotein (Env) of isolate VLGCB3, on pseudovirus (HIV-1)
[7] = target: HIV-1 envelope glycoprotein (Env) of isolate MGRM-Chronic-B-002, on pseudovirus (HIV-1)
[8] = target: HIV-1 envelope glycoprotein (Env) of isolate MG RM-A-013, subtype A (HIV-1)
[9] = target: HIV-1 JR-CSF Env E466A (HIV-1 (isolate JR-CSF)) (UniProt P20871)
[10] = target: HIV-1 JR-CSF Env T303A (HIV-1 (isolate JR-CSF, clade B)) (UniProt P20871)
[11] = target: HIV-1 envelope glycoprotein (Env) of isolate MGRM-Chronic-B-020, on pseudovirus (HIV-1)
[12] = target: HIV-1 envelope glycoprotein (Env) of isolate MG RM-A-008, subtype A (HIV-1)
[13] = target: HIV-1 Env of isolate MGRM-AG-001 (subtype AG) (HIV-1)
[14] = target: HIV-1 Env of isolate MGRM-A-011 (subtype A) (HIV-1)
[15] = target: HIV-1 Env of isolate MGRM-D-004 (pseudovirus) (HIV-1)
[16] = target: HIV-1 Env of isolate MGRM-F1-021 (HIV-1)
[17] = target: HIV-1 Env of isolate MGRM-C-002 (HIV-1)
[18] = target: HIV-1 Env of isolate MGRM-AG-005 (subtype AG) (HIV-1)
[19] = target: HIV-1 Env of isolate MGRM-D-019 (pseudovirus) (HIV-1)
[20] = target: HIV-1 Env of isolate MGRM-D-020 (pseudovirus) (HIV-1)
[21] = target: HIV-1 Env of isolate MGRM-F1-016 (HIV-1)
[22] = target: HIV-1 Env of isolate MGRM-F1-008 (HIV-1)
[23] = target: HIV-1 envelope glycoprotein (Env) of isolate MG RM-AG-002 (HIV-1)
[24] = target: HIV-1 Env of pseudovirus MGRM-F1-020 (HIV-1)
[25] = target: HIV-1 Env of pseudovirus MGRM-D-012 (HIV-1)
[26] = target: HIV-1 Env of pseudovirus isolate 93TH305 (clade B) (HIV-1)
[27] = target: HIV-1 Env of pseudovirus isolate 92BR020 (clade B) (HIV-1)
[28] = target: HIV-1 Env of isolate MGRM-D-008 (HIV-1)
[29] = target: HIV-1 Env of isolate 98CN009 (HIV-1)
[30] = target: HIV-1 Env of isolate MGRM-C-015 (subtype C), on pseudovirus (HIV-1)

5145_B14 (PGT-127) (antibody)
Fold IC50 increase relative to wild-type (pseudovirus neutralization) [1]: 0.5 fold
IC50, pseudovirus neutralization [2]: > 50 µg/mL
IC50, pseudovirus neutralization [3]: > 50 µg/mL
Fold IC50 increase relative to wild-type [4]: 10.2 fold
IC50 (µg/mL), pseudovirus neutralization [5]: > 50 µg/mL
IC50, pseudovirus neutralization [6]: 0.022 µg/mL
IC50, pseudovirus neutralization [7]: 0.279 µg/mL
IC50, pseudovirus neutralization [8]: 0.029 µg/mL
Fold IC50 increase relative to wild-type (pseudovirus neutralization) [9]: 0.9 fold
Fold IC50 increase relative to wild-type [10]: > 500 fold
IC50, pseudovirus neutralization [11]: 0.05 µg/mL
IC50, pseudovirus neutralization [12]: > 50 µg/mL

5329_C19 (PGT-136) (antibody)
IC50, pseudovirus neutralization [13]: > 50 µg/mL
IC50, pseudovirus neutralization [14]: > 50 µg/mL
IC50 (µg/mL), pseudovirus neutralization [15]: > 50 µg/mL
IC50 (µg/mL), pseudovirus neutralization [16]: > 50 µg/mL
IC50 (µg/mL), pseudovirus neutralization [17]: > 50 µg/mL
IC50, pseudovirus neutralization [18]: > 50 µg/mL
IC50 (µg/mL), pseudovirus neutralization [19]: > 50 µg/mL
IC50 (µg/mL), pseudovirus neutralization [20]: > 50 µg/mL
IC50 (µg/mL), pseudovirus neutralization [21]: > 50 µg/mL
IC50 (µg/mL), pseudovirus neutralization [22]: > 50 µg/mL

5343_B08 (PGT-135) (antibody)
IC50, pseudovirus neutralization [13]: > 50 µg/mL
IC50, pseudovirus neutralization [14]: > 50 µg/mL
Fold IC50 increase relative to wild-type (pseudovirus neutralization) [1]: 0.1 fold
IC50 (µg/mL), pseudovirus neutralization [15]: > 50 µg/mL
IC50 (µg/mL), pseudovirus neutralization [16]: 0.065 µg/mL
IC50 (µg/mL), pseudovirus neutralization [17]: > 50 µg/mL
IC50, pseudovirus neutralization [18]: > 50 µg/mL
IC50 (µg/mL), pseudovirus neutralization [19]: > 50 µg/mL
IC50 (µg/mL), pseudovirus neutralization [20]: > 50 µg/mL
Fold IC50 increase relative to wild-type (pseudovirus neutralization) [9]: 0.5 fold
IC50 (µg/mL), pseudovirus neutralization [21]: > 50 µg/mL
IC50 (µg/mL), pseudovirus neutralization [22]: > 50 µg/mL

5345_I01 (PGT-137) (antibody)
IC50, pseudovirus neutralization [13]: > 50 µg/mL
IC50, pseudovirus neutralization [14]: > 50 µg/mL
IC50 (µg/mL), pseudovirus neutralization [15]: > 50 µg/mL
IC50 (µg/mL), pseudovirus neutralization [16]: > 50 µg/mL
IC50 (µg/mL), pseudovirus neutralization [17]: 8.03 µg/mL
IC50, pseudovirus neutralization [18]: > 50 µg/mL
IC50 (µg/mL), pseudovirus neutralization [19]: > 50 µg/mL
IC50 (µg/mL), pseudovirus neutralization [20]: > 50 µg/mL
IC50 (µg/mL), pseudovirus neutralization [21]: > 50 µg/mL
IC50 (µg/mL), pseudovirus neutralization [22]: > 50 µg/mL

PGT-141 (4964_G22; 4993_K13) (antibody)
IC50 [23]: 0.049 µg/mL
IC50, pseudovirus neutralization [24]: 1.15 µg/mL
IC50, pseudovirus neutralization [25]: > 50 µg/mL

PGT-142 (4995_E20) (antibody)
IC50 [23]: 0.044 µg/mL
IC50, pseudovirus neutralization [24]: 0.824 µg/mL
IC50, pseudovirus neutralization [25]: > 50 µg/mL

PGT-143 (4980_N08) (antibody)
IC50 [23]: 0.076 µg/mL
IC50, pseudovirus neutralization [24]: 0.98 µg/mL
IC50, pseudovirus neutralization [25]: > 50 µg/mL

PGT-144 (4970_K22) (antibody)
IC50 [23]: 7.78 µg/mL
IC50, pseudovirus neutralization [24]: 8.93 µg/mL
IC50, pseudovirus neutralization [25]: > 50 µg/mL

PGT-145 (4995_P16) (antibody)
IC50 [23]: 0.056 µg/mL
IC50, pseudovirus neutralization [24]: 0.816 µg/mL
IC50, pseudovirus neutralization [25]: > 50 µg/mL

PGV04 (antibody)
IC50 (µg/mL), pseudovirus neutralization [16]: 0.031 µg/mL

VRC01 (antibody)
IC50 [23]: 0.95 µg/mL
IC50, pseudovirus neutralization [26]: 0.243 µg/mL
IC50, pseudovirus neutralization [27]: 0.29 µg/mL
IC50, pseudovirus neutralization [24]: 1.89 µg/mL
IC50, pseudovirus neutralization [25]: 0.216 µg/mL
IC50 (µg/mL), pseudovirus neutralization [28]: 0.854 µg/mL
IC50 (µg/mL), pseudovirus neutralization [29]: 0.346 µg/mL
IC50, single-round pseudovirus neutralization [30]: 1.57 µg/mL
